Measured values from the RNAGym collection of RNA variant scans (doi:10.7554/elife.80360).

B1: CPEB3 Ribozyme (parent)
chain: GGGGGCCACAGCAGAAGCGUUCACGUCGCGGCCCCUGUCAGAUUCUGGUGAAUCUGCGAAUUCUGCUGU

Variants of: B1
Assay: self-cleavage, relative activity (ratio to wild type); higher = more cleavage; co-transcriptional

Variant	self-cleavage
A42C G56A	0.812
A42U U67C	0.947
G41A U64A	0.419
U43C A52G	0.965
A42G G47C	0.941
G41U U69C	0.697
A40U U53A	0.302
A40U U53G	0.378
A40G A52G	0.903
A40G A52C	0.87
A40G A52U	0.851
A42U A51G	0.933
G41U A51C	0.588
G41A G47A	0.979
G41A G47U	0.98
G41A G65A	0.482
A42G G56U	0.567
U43G C45U	1.02
G41A C45A	0.37
G41A C45G	0.537
U43C G56U	0.638
A42U G56C	0.326
A40U A59C	0.285
G41U G56U	0.343

Variant	self-cleavage
G41U G56C	0.357
A40U C63A	0.364
A42C C63U	0.926
A42C U64C	0.637
G41A C54A	0.904
A40G A42C	0.81
U43A C54U	0.771
G41A A51G	0.797
G41A A51C	0.483
G41C C66A	0.285
G41C C66U	0.75
A40U G58C	0.881
A40U G58A	0.797
A40U G58U	0.931
A42U C54U	0.81
G41A G48C	0.876
G41A G48U	0.987
U43A U69C	1.04
U43C U44G	0.904
U43C A51U	0.944
U43C A51G	0.964
A42U U46A	1.03
A42U U46G	1.01
U43A G48C	0.912

Variant	self-cleavage
G41U A42G	0.777
G41U A42C	0.389
G41U A42U	0.862
G41C A51G	0.687
U43G G56U	0.385
G41U U53A	0.616
A42C A51U	0.952
A42C A51C	0.832
U43G G47U	0.999
U43G G47A	0.95
U43A G68A	0.933
G41C U64C	0.394
A40U G48A	0.977
G41U U44C	0.366
U43G G58A	0.881
G41A U49A	0.885
G41U C66U	0.75
G41C U69A	0.932
U43A A59G	0.782
U43A A59U	0.579
U43A A59C	0.573
A42C U46A	0.967
A42C U46C	0.895
G41C G50C	0.325

Variant	self-cleavage
G41C G50U	0.698
G41C G50A	0.693
G41C A59U	0.271
A40C U44G	0.419
A40C U44A	0.417
A40C U44C	0.368
A40G U62A	0.837
A40G U62G	0.858
A40G G68U	0.987
A42C U53C	0.939
A42C U53G	1.04
A42C A59C	0.528
A42C A59G	0.961
A42C A59U	0.633
U43G U44G	0.83
G41U C63G	0.43
G41U C63A	0.37
A42U U61C	0.435
A42U U43C	0.77
A42U U43G	0.735
G41C	0.891
G41A	0.906
G41U	0.928
G41C U46C	0.63

Variant	self-cleavage
G41C U46G	0.855
A42G U44G	0.904
G41A C63A	0.329
G41U A60C	0.414
U43C G48A	1.02
U43C G65A	0.732
U43C G65U	0.568
A42U U55C	0.522
A40G C57A	0.34
A40G C57U	0.311
G41A U61C	0.257
A42U A59U	0.677
A42U A59C	0.546
A42G G58U	0.978
A42U C57G	0.298
A42U C57A	0.379
A42U U49A	0.958
A42G U55G	0.335
A42C G50U	0.932
G41C G47C	0.939
G41C G47U	0.935
U43A G58C	0.901
A40C U69G	0.875
A40U G47A	0.885

Variant	self-cleavage
A40U G47U	0.912
A40G U55A	0.858
A40G U55G	0.757
A40G U55C	1
A42C U43C	0.777
U43G G48U	1.01
G41A G50U	0.686
G41A G50C	0.453
U43A C57G	0.357
A42U U44C	0.913
A42U U44G	0.859
G41C U55A	0.549
G41C U55G	0.369
U43A C66G	0.572
G41U C57A	0.303
G41U C57G	0.328
G41U C57U	0.243
A42C U61G	0.518
G41A U43G	0.241
A40G C45G	0.942
U43A A60C	0.281
U43A A52G	1
U43A A52C	0.991
A42C C54A	0.707

Variant	self-cleavage
A42C C54U	0.822
U43C G50U	0.99
U43C G50C	0.915
U43G C66G	0.484
A42G U46C	0.965
G41A U46G	0.904
A40G U64C	0.737
A40G U64G	0.796
U43C C54A	0.734
A42G A52G	0.825
A40G C66G	0.67
A40U U44A	0.609
A42U G47A	0.957
G41U A59U	0.453
A42G U64A	0.602
A42G U64G	0.693
A42G U64C	0.678
A42U G48U	0.99
G41U U67G	0.865
G41U U67A	0.888
A40C U55G	0.951
U43C U53G	0.978
U43C U53C	0.855
U43A A51C	0.933

Variant	self-cleavage
A40U U43G	0.299
A40U U64C	0.388
G41U C45U	0.715
G41A U67C	0.818
A42C G65U	0.574
A42C G65C	0.474
G41A U44C	0.413
G41A U44A	0.302
A42U U64C	0.609
A42C G58A	0.925
A42C G58U	1.01
A40G G47C	1
A42G A60U	0.329
A42G A60C	0.405
G41C G48A	0.949
A40G A51G	0.979
A40G U44A	0.907
U43A C63U	0.86
A42C U49C	0.892
A42C G48C	0.851
A42C G48A	0.965
A42C G48U	0.988
G41A U55C	0.491
A40U A52U	0.477

Variant	self-cleavage
A40U A52C	0.561
A40G G56C	0.779
G41U U49A	0.97
G41U U49G	0.848
G41A G58U	0.921
G41A G58A	0.906
G41A G58C	0.86
A40U G56C	0.475
A40U G56U	0.552
U43G G50C	0.864
A42G U53C	0.891
A42U C66G	0.682
A42G G48A	0.979
G41A A52C	0.388
A42G A51G	0.894
A42C A60G	0.771
A42C A60C	0.503
G41C G65C	0.316
A42G G50A	0.88
A42G G50C	0.789
A40G G65U	0.519
A42U G58U	0.965
A42G G68C	0.963
A42G G68U	1.01

Variant	self-cleavage
A42G G68A	0.98
U43C U55G	0.388
U43G C57G	0.308
U43G C57U	0.385
A42U G68U	0.99
A42U G68C	0.964
G41U A52U	0.526
A42U U53C	0.935
G41C C63G	0.382
G41C C63U	0.685
U43A C45G	0.868
G41A C66U	0.756
G41A C66A	0.388
U43A U55C	0.289
U43A U55G	0.283
U43C G47U	0.98
U43G C63A	0.436
U43G C63U	0.751
A40U C54A	0.435
A42G U61C	0.521
A42G U61A	0.693
G41C U53G	0.552
G41C C54A	0.931
G41C C54G	0.98

Variant	self-cleavage
G41C C54U	0.906
G41A A59G	0.774
G41A A59U	0.332
U43C C63U	0.914
A42G U62G	0.709
A42G U62A	0.733
A42G C57G	0.276
A42G C57A	0.306
U43G U53C	0.874
A40G A59U	0.691
G41C C57G	0.249
G41C C57A	0.285
G41A G56A	0.77
U43C U61C	0.511
U43C U61A	0.764
U43C U61G	0.562
G41C A52G	0.609
G41C A52U	0.415
G41U G50A	0.704
G41U G50U	0.845
U43C U69G	1.03
U43C U69C	1.07
G41C U49G	0.899
U43C C66A	0.614

Variant	self-cleavage
U43C U49A	0.988
U43C U49G	0.949
A42C G47C	0.977
A42C G47U	0.958
G41C U61A	0.484
A42U C63A	0.608
A42U C63G	0.533
U43A U53C	0.795
U43A U53A	0.946
U43C G68C	1.01
U43C G68A	1.03
A42C C66A	0.57
U43G G65A	0.453
A40G U67A	0.941
A40C G68C	0.749
A40C G68U	0.806
U43G G68C	0.902
U43A U61G	0.485
U43A U61A	0.651
A42G U69A	1.01
U43G C54U	0.662
G41C G58C	0.85
G41C G58U	0.962
U43C C57U	0.394

Variant	self-cleavage
G41A A60G	0.464
A42C U67G	0.919
U43C C45G	0.964
U43C C45A	0.961
G41C U67C	0.776
G41U U55A	0.551
G41U U55C	0.34
A40G	0.97
A40U	0.901
A42U G50A	0.949
A40U G50U	0.749
G41U U62G	0.391
U43A U67G	0.889
G41A U53C	0.318
A40G C54A	0.701
A40G C54G	0.656
A40C U67C	0.539
G41U G65C	0.272
A40U G41U	0.664
A40U G41C	0.592
A42G C45G	0.92
A40U A60G	0.47
G41A G68A	0.979
A42G C54G	0.71

Variant	self-cleavage
A42G C54A	0.708
U43G U46A	0.959
A40U C57A	0.333
A40U C57U	0.302
G41C A42G	0.754
G41C G56C	0.417
A40C U64C	0.357
A40C U64G	0.403
A42U C45A	0.889
A42U C45U	0.997
A42U C45G	0.89
U43A U62C	0.668
U43A U64G	0.578
G41U G48A	0.998
A40U U61A	0.5
A40U U61C	0.258
U43C U62G	0.783
G41C U62A	0.294
G41U G47A	1.02
U43C G58C	0.936
G41A A42U	0.49
A42U U69G	1.01
